{"source": "paper doi:10.1101/2021.01.13.426364", "about": "(bioRxiv, 2021)", "key": {"[1]": {"target": "T1, Variant Surface Glycoprotein VSG2, soluble purified form (Trypanosoma brucei, UniProt P26332)", "assay": "SEC"}, "[2]": {"target": "T2, Variant Surface Glycoprotein VSG2 on living VSG2-expressing bloodstream form trypanosomes (Trypanosoma brucei, UniProt P26332)", "assay": "flow cytometry on cells"}, "[3]": {"target": "T1, Variant Surface Glycoprotein VSG2, …", "assay": "crystal structure"}, "[4]": {"target": "T2, Variant Surface Glycoprotein VSG2 on …", "assay": "Western blot of washed cells after incubation with nanobody"}, "crystal structure": {"target": "the molecule itself", "assay": "crystal structure"}}}
{"binder": "NB11_(VSG2) mutant L100A (VHH) VHH: QVQLQESGGGLVQAGGSLTLSCAVSGLTFSNYAMGWFRQAPGKEREFVAAITWDGGNTYYTDSVKGRFTISRDNAKNTVFLQMNSLKPEDTAVYYCAAKALGSSRYELALAGYDYWGQGTQVTVSS", "values": [{"measurement": "binding result", "setting": "[1]", "result": "binds"}]}
{"binder": "NB11_(VSG2) mutant S103A (VHH) VHH: QVQLQESGGGLVQAGGSLTLSCAVSGLTFSNYAMGWFRQAPGKEREFVAAITWDGGNTYYTDSVKGRFTISRDNAKNTVFLQMNSLKPEDTAVYYCAAKLLGASRYELALAGYDYWGQGTQVTVSS", "values": [{"measurement": "binding result", "setting": "[1]", "result": "binds"}]}
{"binder": "NB11_(VSG2) triple mutant L100/L101/S103 (VHH) VHH: QVQLQESGGGLVQAGGSLTLSCAVSGLTFSNYAMGWFRQAPGKEREFVAAITWDGGNTYYTDSVKGRFTISRDNAKNTVFLQMNSLKPEDTAVYYCAAKAAGASRYELALAGYDYWGQGTQVTVSS", "values": [{"measurement": "binding result", "setting": "[1]", "result": "no binding"}]}
{"binder": "NB11_(VSG2) mutant L101A (VHH) VHH: QVQLQESGGGLVQAGGSLTLSCAVSGLTFSNYAMGWFRQAPGKEREFVAAITWDGGNTYYTDSVKGRFTISRDNAKNTVFLQMNSLKPEDTAVYYCAAKLAGSSRYELALAGYDYWGQGTQVTVSS", "values": [{"measurement": "binding result", "setting": "[1]", "result": "binds"}]}
{"binder": "NB14_(VSG2) sortagged with FAM (VHH) VHH: QVQLQESGGGLVQAGGSLRLSCEASGLTFSNYAMAWFRQAPEKEREFVAGISWTGSRTYYADSVRGRFTTSRDGHKNTVYLQMNDLKPEDTAVYLCAADLLGSGKDGTSVYEYWGQGTQVTVSS", "values": [{"measurement": "binding result", "setting": "[2]", "result": "binds"}]}
{"binder": "NB14_(VSG2) (VHH) VHH: QVQLQESGGGLVQAGGSLRLSCEASGLTFSNYAMAWFRQAPEKEREFVAGISWTGSRTYYADSVRGRFTTSRDGHKNTVYLQMNDLKPEDTAVYLCAADLLGSGKDGTSVYEYWGQGTQVTVSS", "values": [{"measurement": "binding result", "setting": "[3]", "result": "binds"}, {"measurement": "binding result", "setting": "[4]", "result": "binds"}]}
{"binder": "NB19_(VSG2) sortagged with FAM (VHH) VHH: QVQLQESGGGLVQAGGSLRLSCAASERTFSSLGMGWFRQGPGKEREFAAAISWSGVSTYYADSVKGRFTISRDNDKNTVYLQMNSLKPDDTAVYYCAATSSWNDMALKSAGWYEYWGQGTQVTVSS", "values": [{"measurement": "binding result", "setting": "[2]", "result": "binds"}]}
{"binder": "NB19_(VSG2) mutant E114/Y115A (VHH) VHH: QVQLQESGGGLVQAGGSLRLSCAASERTFSSLGMGWFRQGPGKEREFAAAISWSGVSTYYADSVKGRFTISRDNDKNTVYLQMNSLKPDDTAVYYCAATSSWNDMALKSAGWYAAWGQGTQVTVSS", "values": [{"measurement": "binding result", "setting": "[1]", "result": "no binding"}]}
{"binder": "NB19_(VSG2) (VHH) VHH: QVQLQESGGGLVQAGGSLRLSCAASERTFSSLGMGWFRQGPGKEREFAAAISWSGVSTYYADSVKGRFTISRDNDKNTVYLQMNSLKPDDTAVYYCAATSSWNDMALKSAGWYEYWGQGTQVTVSS", "values": [{"measurement": "binding result", "setting": "[4]", "result": "binds"}, {"measurement": "binding result", "setting": "[1]", "result": "binds"}]}
{"binder": "NB19_(VSG2) mutant Y115A (VHH) VHH: QVQLQESGGGLVQAGGSLRLSCAASERTFSSLGMGWFRQGPGKEREFAAAISWSGVSTYYADSVKGRFTISRDNDKNTVYLQMNSLKPDDTAVYYCAATSSWNDMALKSAGWYEAWGQGTQVTVSS", "values": [{"measurement": "binding result", "setting": "[1]", "result": "no binding"}]}
{"binder": "NB19_(VSG2) mutant E114A (VHH) VHH: QVQLQESGGGLVQAGGSLRLSCAASERTFSSLGMGWFRQGPGKEREFAAAISWSGVSTYYADSVKGRFTISRDNDKNTVYLQMNSLKPDDTAVYYCAATSSWNDMALKSAGWYAYWGQGTQVTVSS", "values": [{"measurement": "binding result", "setting": "[1]", "result": "no binding"}]}
{"binder": "Variant Surface Glycoprotein VSG2, soluble purified form (natural protein, Trypanosoma brucei, UniProt P26332 27-459, looked up) AAEKGFKQAFWQPLCQVSEELDDQPKGALFTLQAAASKIQKMRDAALRASIYAEINHGTNRAKAAVIVANHYAMKADSGLEALKQTLSSQEVTATATASYLKGRIDEYLNLLLQTKESGTSGCMMDTSGTNTVTKAGGTIGGVPCKLQLSPIQPKRPAATYLGKAGYVGLTRQADAANNFHDNDAECRLASGHNTNGLGKSGQLSAAVTMAAGYVTVANSQTAVTVQALDALQEASGAAHQPWIDAWKAKKALTGAETAEFRNETAGIAGKTGVTKLVEEALLKKKDSEASEIQTELKKYFSGHENEQWTAIEKLISEQPVAQNLVGDNQPTKLGELEGNAKLTTILAYYRMETAGKFEVLTQKHKPAESQQQAAETEGSCNKKDQNECKSPCKWHNDAENKKCTLDKEEAKKVADETAKDGKTGNTNTTGSS", "values": [{"measurement": "binding result", "setting": "crystal structure", "result": "binds"}]}
{"binder": "NB9_(VSG2) (VHH) VHH: QVQLQESGGGLVQAGGSLRLSCTTSGLTFSNYAFSWFRQAPGEEREFVGAISWSGGRTDYADSVKGRFTISRDNAKNTFYLQMNSLKTEDTAVYYCAADLLGEGSRRSEYEYWGQGTQVTVSS", "values": [{"measurement": "binding result", "setting": "[3]", "result": "binds"}, {"measurement": "binding result", "setting": "[4]", "result": "binds"}]}
{"binder": "NB9_(VSG2) sortagged with FAM (VHH) VHH: QVQLQESGGGLVQAGGSLRLSCTTSGLTFSNYAFSWFRQAPGEEREFVGAISWSGGRTDYADSVKGRFTISRDNAKNTFYLQMNSLKTEDTAVYYCAADLLGEGSRRSEYEYWGQGTQVTVSS", "values": [{"measurement": "binding result", "setting": "[2]", "result": "binds"}]}
